In PMC4526890, “Crystal structures of Mycobacterium tuberculosis GlgE and complexes with non-covalent inhibitors” (Scientific Reports, 2015):

Biological target: T1, Mycobacterium tuberculosis GlgE (Mycobacterium tuberculosis), P9WQ17
T1 chain: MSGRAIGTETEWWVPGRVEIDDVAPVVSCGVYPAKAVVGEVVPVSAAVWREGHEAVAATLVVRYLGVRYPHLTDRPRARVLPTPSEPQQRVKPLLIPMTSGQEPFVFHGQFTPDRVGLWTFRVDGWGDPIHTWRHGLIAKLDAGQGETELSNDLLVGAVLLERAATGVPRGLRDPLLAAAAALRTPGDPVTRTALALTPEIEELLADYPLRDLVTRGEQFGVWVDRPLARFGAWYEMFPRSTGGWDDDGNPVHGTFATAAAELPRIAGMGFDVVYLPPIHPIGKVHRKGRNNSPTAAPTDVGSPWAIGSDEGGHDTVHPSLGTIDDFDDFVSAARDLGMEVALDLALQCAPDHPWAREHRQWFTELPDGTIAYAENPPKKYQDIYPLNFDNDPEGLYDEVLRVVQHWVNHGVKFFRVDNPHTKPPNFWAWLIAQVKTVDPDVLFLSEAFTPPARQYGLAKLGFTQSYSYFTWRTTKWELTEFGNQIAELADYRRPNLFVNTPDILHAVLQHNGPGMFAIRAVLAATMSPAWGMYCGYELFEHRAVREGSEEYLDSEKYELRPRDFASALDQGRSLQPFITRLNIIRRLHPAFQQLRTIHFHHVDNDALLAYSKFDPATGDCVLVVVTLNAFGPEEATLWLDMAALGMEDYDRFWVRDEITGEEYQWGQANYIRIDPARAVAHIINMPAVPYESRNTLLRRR
Assay: crystal structure; Mtb GlgE co-crystallised with 10 mM maltose (hanging drop, 0.1 M HEPES pH 7.5, 1.0 M ammonium formate), 3.3 Å; the same crystals soaked with 10 mM maltohexaose, 4.0 Å; homodimer seen in the crystal
Conditions: remark: other sources report otherwise

B1: Mycobacterium tuberculosis GlgE, P9WQ17 1-701 (enzyme)
chain: MSGRAIGTETEWWVPGRVEIDDVAPVVSCGVYPAKAVVGEVVPVSAAVWREGHEAVAATLVVRYLGVRYPHLTDRPRARVLPTPSEPQQRVKPLLIPMTSGQEPFVFHGQFTPDRVGLWTFRVDGWGDPIHTWRHGLIAKLDAGQGETELSNDLLVGAVLLERAATGVPRGLRDPLLAAAAALRTPGDPVTRTALALTPEIEELLADYPLRDLVTRGEQFGVWVDRPLARFGAWYEMFPRSTGGWDDDGNPVHGTFATAAAELPRIAGMGFDVVYLPPIHPIGKVHRKGRNNSPTAAPTDVGSPWAIGSDEGGHDTVHPSLGTIDDFDDFVSAARDLGMEVALDLALQCAPDHPWAREHRQWFTELPDGTIAYAENPPKKYQDIYPLNFDNDPEGLYDEVLRVVQHWVNHGVKFFRVDNPHTKPPNFWAWLIAQVKTVDPDVLFLSEAFTPPARQYGLAKLGFTQSYSYFTWRTTKWELTEFGNQIAELADYRRPNLFVNTPDILHAVLQHNGPGMFAIRAVLAATMSPAWGMYCGYELFEHRAVREGSEEYLDSEKYELRPRDFASALDQGRSLQPFITRLNIIRRLHPAFQQLRTIHFHHVDNDALLAYSKFDPATGDCVLVVVTLNAFGPEEATLWLDMAALGMEDYDRFWVRDEITGEEYQWGQANYIRIDPARAVAHIINMPAVPYESRNTLLRRR
  stoichiometry N: 2
